In the assay the target is T1, μ-opioid receptor (rat (endogenous in rat brain)), P33535.
T1 chain: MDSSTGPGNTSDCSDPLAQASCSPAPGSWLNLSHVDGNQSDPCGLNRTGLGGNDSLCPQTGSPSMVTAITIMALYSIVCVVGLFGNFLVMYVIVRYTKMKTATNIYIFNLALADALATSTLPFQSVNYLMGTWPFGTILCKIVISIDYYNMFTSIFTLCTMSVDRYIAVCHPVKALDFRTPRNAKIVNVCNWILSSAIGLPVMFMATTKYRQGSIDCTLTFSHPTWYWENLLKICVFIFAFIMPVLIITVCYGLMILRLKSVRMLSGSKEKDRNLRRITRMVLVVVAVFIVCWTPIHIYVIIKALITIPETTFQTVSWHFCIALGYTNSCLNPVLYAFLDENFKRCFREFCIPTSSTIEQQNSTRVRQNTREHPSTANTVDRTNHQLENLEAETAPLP
The assay can be described thus: radioligand binding; displacement of [^3H]DAMGO from rat brain membrane homogenate by unlabelled ligand (10^-10 to 10^-5 M); 50 mM Tris-HCl pH 7.4, 35 °C, 45 min; non-specific binding with 10 μM naloxone; IC50 converted into Ki by Cheng-Prusoff, one site competition fit.

The term Ki denotes the equilibrium dissociation constant of an inhibitor or competing ligand from its target. A low value points to higher affinity.

As for YPFF (modifications not checked) [endomorphin-2 (EM-2)], the Ki came to 3.16 nM.

(Values after paper PMC7072329, “Discovery of Kynurenines Containing Oligopeptides as Potent Opioid Receptor Agonists” (Biomolecules, 2020).)
